Results as given in patent US20260232759A1 (WISCONSIN ALUMNI RESEARCH FOUNDATION, published 2026).
No end group written: not given here. PEG‑cholesterol = not defined here

Target: SARS-CoV-2 Spike protein (SARS-CoV-2, UniProt P0DTC2 14-1273)
Test: cell-based or functional assay

Row | Binder | inhibition of S-mediated cell-cell fusion (β-Gal complementation), IC50 [nM]
1 | DISQINASVVNIEYEIKKLEEVAKKLEESLIDLQELGSGSGC(PEG‑cholesterol) (not fully specified (C-terminus); reading uncertain; also: β2- or β3-amino acids, presumably D1, Q4, D32, E35) [D1 Q4 D32 E35] | ~50
2 | DISQINASVVNIEYEIKKLEEVAKKLEESLIDLQELGSGSGC(PEG‑cholesterol) (not fully specified (C-terminus); reading uncertain; also: β2- or β3-amino acids, presumably D1, Q4, D32, Q34) [D1 Q4 D32 Q34] | ~10
